Results: patent US9068000B2, “Monoclonal antibodies for enhancing or inhibiting insulin-like growth factor-I” (The University of North Carolina at Chapel Hill, priority 2004, dated 2015)
No end group written: not given here.

Key:
[1] = molecular target: αVβ3 integrin (Homo sapiens, UniProt P05106); assay: Binding of peptides/ligands to the cysteine loop region of αVβ3
Description: As noted above, the agonists bind to a specific region on the αVβ3 integrin receptor that has not been identified previously as a region that would result in receptor activation. All agonists that we have determined to bind in this region contain a region of sequence that is commonly termed a heparin binding domain. This heparin binding domain is present in 5 ligands that we have found to date that bind to this region of αVβ3. The documentation that they bind to a specific region of αVβ3 has been provided by two types of experiments. First we have a polyclonal antibody that is known to react with this region of αVβ3, which is the region of the β3 subunit that is located between amino acids at positions 177 and 183.
A more definitive experiment was conducted in which the identical region of the β1 integrin was substituted by mutagenesis for this […] amino acid region within β3. […] Binding assays were then conducted using these ligands.

[2] = test system: β3 phosphorylation; assay: β3 phosphorylation, SHP-2 transfer and enhancement of IGF-I receptor activation; format: cell-based
Description: (§1) Modification of IGF-I actions. […] These assays include but are not totally limited to the following: β3 subunit phosphorylation, β3 binding to SHPS-1, and integrin associated protein (IAP) as a complex, the association of IAP with SHPS-1, SHPS-1 phosphorylation and Shc recruitment to SHPS-1, Shc phosphorylation, stimulation of DNA synthesis and cell replication or cell migration. Ligands that bind to β3 through the cysteine loop domain often induce both conformational changes and β3 phosphorylation. Similarly, stimulation of β3 phosphorylation can induce a conformational change in β3 secondarily. β3 phosphorylation is measured by applying the compound that binds to β3 to smooth muscle and endothelial cells in culture. […] The lysates are either analyzed directly by immunoblotting for β3 to measure […] or immunoprecipitated with an anti β3 antibody and then immunoblotted for phosphotyrosine. Immunoblotting is analyzed following separation of the proteins contained in 30 μl of cell lysate by SDS polyacrylamide gel electrophoresis (SDS-PAGE). […] The amount of phosphorylated β3 is then determined by SDS-PAGE followed by immunoblotting with a monoclonal anti-phosphotyrosine antibody (PY99) (Ling Y, Maile L A, Clemmons D R, Mol Endocrinol, 17:1824-1833 (2003)).

[3] = test system: IGF-I; assay: IGF-I biologic actions (DNA synthesis, cell migration, protein synthesis); format: cell-based
Method: Cell Replication. Smooth muscle and/or endothelium are plated at relatively low density, 10^4/cm^2 in low serum (0.2%) containing medium. 24 hr after plating, cells are quiesced in 0.2% platelet poor plasma containing medium. 24 hr later the cultures are exposed to increasing concentrations of IGF-I between 0 and 100 ng/ml and the β3 agonists or antagonists. After 48 hr, the cell cultures are stained with trypan blue and the cell number is determined by manual counting. If β3 is occupied by an agonist then there is at least a 2 fold increase in cell number over this time period. Whereas if an antagonist is added there is often less than 20% increase in cell number.
Cell Migration. Confluent quiescent smooth muscle or endothelial cell cultures are wounded with a razor blade as described in Maile L A, Imai Y, Clarke J B, Clemmons D R, J. Biol. Chem., 277:1800-1805 (2002). The wounds are examined to determine that a straight edge has been obtained and there are no grooves in the plate. At least five areas that are correctly wounded are then identified with a color marker. IGF-I is added at concentrations of either 50 or 100 ng/ml and various concentrations of the angonists or antagonists are added to at least duplicate cultures. After 72 hr the number of cells that have migrated at least 50 microns from the wound edge are determined and counted following staining with methylene blue. […]

[4] = test system: IGF-I receptor; assay: Activation of the IGF-I receptor by IGF-I; format: cell-based
Description: as §1

Chain of αVβ3 integrin (P05106 27-788): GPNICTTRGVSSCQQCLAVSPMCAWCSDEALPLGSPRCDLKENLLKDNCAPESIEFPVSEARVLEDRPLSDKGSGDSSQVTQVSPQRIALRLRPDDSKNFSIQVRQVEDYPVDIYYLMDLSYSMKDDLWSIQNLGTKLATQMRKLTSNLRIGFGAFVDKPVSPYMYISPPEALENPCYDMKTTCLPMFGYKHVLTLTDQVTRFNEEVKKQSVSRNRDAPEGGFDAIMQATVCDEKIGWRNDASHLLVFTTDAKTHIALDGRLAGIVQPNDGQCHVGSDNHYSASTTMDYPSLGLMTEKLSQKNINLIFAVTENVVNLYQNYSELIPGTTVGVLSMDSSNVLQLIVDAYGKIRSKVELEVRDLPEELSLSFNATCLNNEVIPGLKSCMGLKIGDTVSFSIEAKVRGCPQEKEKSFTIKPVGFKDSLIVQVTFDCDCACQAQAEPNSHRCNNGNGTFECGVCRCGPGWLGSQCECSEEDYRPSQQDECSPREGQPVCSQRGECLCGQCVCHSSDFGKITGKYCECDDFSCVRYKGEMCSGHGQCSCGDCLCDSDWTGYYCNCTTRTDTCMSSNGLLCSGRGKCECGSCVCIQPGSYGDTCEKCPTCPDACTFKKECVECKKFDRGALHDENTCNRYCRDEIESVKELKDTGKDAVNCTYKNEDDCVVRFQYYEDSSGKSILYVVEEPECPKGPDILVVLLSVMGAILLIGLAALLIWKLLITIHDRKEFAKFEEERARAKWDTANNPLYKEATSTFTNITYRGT
Chain of αVβ3 integrin (P06756 31-889 partner limits assumed): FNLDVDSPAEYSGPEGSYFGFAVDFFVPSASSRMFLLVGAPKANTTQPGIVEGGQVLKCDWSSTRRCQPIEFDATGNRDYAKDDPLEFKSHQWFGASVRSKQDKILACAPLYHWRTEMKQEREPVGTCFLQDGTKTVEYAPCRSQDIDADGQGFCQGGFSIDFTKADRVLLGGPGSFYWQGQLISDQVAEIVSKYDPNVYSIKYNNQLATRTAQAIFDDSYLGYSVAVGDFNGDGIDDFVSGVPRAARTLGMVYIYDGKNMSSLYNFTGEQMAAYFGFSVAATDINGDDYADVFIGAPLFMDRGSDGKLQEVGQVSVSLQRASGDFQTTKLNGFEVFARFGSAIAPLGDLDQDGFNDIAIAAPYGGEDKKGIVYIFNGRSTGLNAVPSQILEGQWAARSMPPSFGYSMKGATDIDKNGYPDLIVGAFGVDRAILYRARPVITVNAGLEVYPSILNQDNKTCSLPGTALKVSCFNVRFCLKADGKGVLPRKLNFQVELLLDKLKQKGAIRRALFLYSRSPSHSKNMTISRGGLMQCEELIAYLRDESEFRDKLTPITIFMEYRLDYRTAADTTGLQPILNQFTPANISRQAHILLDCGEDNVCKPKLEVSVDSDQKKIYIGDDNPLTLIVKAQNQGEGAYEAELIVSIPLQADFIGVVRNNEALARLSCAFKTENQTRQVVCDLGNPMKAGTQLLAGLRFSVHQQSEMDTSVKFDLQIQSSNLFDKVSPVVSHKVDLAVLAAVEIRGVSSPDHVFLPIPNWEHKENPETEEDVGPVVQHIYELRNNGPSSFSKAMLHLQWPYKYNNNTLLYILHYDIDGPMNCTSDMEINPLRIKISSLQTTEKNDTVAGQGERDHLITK
Chain of αVβ3 integrin (P06756 891-1048 partner limits assumed): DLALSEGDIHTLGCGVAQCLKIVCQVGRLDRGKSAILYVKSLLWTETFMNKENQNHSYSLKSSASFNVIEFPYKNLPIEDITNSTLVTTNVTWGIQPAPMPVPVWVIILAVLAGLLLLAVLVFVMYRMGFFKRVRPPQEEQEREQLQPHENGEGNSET

Row | binding to αVβ3 / β3 cysteine loop region [1] | Molecule | further results
1 | shown to bind | osteopontin | 
2 | shown to bind | heparin binding epidermal growth factor | 
3 |  | KKQRFRHR (AlphaV beta3 binding sequence from vitronectin) | stimulation of β3 phosphorylation, SHP-2 transfer to downstream signaling molecules and enhancement of IGF-I receptor activation in response to IGF-I [2]: full stimulation
4 | shown to bind | vitronectin | 
5 | shown to bind | insulin-like binding protein-5 (RKGFYKRK) [IGFBP-5] | 
6 |  | cyclized peptide containing this sequence: a cyclized peptide containing the sequence KKQRFRHL (also: cyclized, mode and places not given here) | inhibitor potency compared with linear KKQRFRHL [3]: more potent inhibitor
7 |  | KKQRFRHL (Synthetic IGF-I antagonist) [IGF-I antagonist peptide] | inhibitory activity on IGF-I actions in biologic assays [3]: inhibitory activity; inhibition of activation of the IGF-I receptor by IGF-I [4]: approximately 60%
8 | shown to bind | connective tissue growth factor (protein) QNCSGPCRCPDEPAPRCPAGVSLVLDGCGCCRVCAKQLGELCTERDPCDPHKGLFCHFGSPANRKIGVCTAKDGAPCIFGGTVYRSGESFQSSCKYQCTCLDGAVGCMPLCSMDVRLPSPDCPFPRRVKLPGKCCEEWVCDEPKDQTVVGPALAAYRLEDTFGPDPTMIRANCLVQTTEWSACSKTCGMGISTRVTNDNASCRLEKQSRLCMVRPCEADLEENIKKGKKCIRTPKISKPIKFELSGCTSMKTYRAKFCGVCTDGRCCTPHRTTTLPVEFKCPDGEVMKKNMMFIKTCACHYNCPGDNDIFESLYYRKMYGDMA | 
